Source: patent US20260266848A1, “COMPOSITIONS AND METHODS FOR DIAGNOSING AND TREATING DYSTONIA” (Duke University, priority 2023, published 2026)

Key:
DYT-TOR1A MEF EVs = assay: Quantitative LC-MS/MS proteomics of EVs from drug-treated DYT-TOR1A MEF cultures (ritonavir, salubrinal); format: cell-based, mouse; set-up: key to RTV Corrective Direction / RTV Corrective Direction, Grwd1 / RTV Corrective Direction, Srrm2 / RTV Corrective Direction, Rbm17 / RTV Corrective Direction, Dcaf8 / RTV Corrective Direction, Edil3 / RTV Corrective Direction, Timp3 / RTV Corrective Direction, Heatr3 / RTV Corrective Direction, Brd4 / RTV Corrective Direction, P3h4 / RTV Corrective Direction, Pacsin3 / RTV Corrective Direction, Naa50 / RTV Corrective Direction, Lpar6 / RTV Corrective Direction, Ndrg1 / RTV Corrective Direction, Kntc1 / RTV Corrective Direction, Cdk11b / RTV Corrective Direction, Sumo1 / RTV Corrective Direction, Lsm4 / RTV Corrective Direction, Hmga2 / RTV Corrective Direction, Cstf1 / RTV Corrective Direction, Tes / RTV Corrective Direction, Sbno1 / RTV Corrective Direction, Unc119b / RTV Corrective Direction, Cfdp1 / RTV Corrective Direction, Sec61b: YES = protein abundance effect opposite to DYT/WT; settings: EV protein abundance; for RTV Corrective Direction: DYT + RTV (ritonavir) vs DYT, direction compared with DYT/WT; for DYT + RTV/DYT Cohen's d: ritonavir (RTV)-treated DYT vs DYT
WT MEF EVs = assay: Quantitative LC-MS/MS proteomics of EVs from ISRIB-treated WT MEF cultures; format: cell-based, mouse; set-up: key to ISRIB and DYT Parallel Direction / ISRIB and DYT Parallel Direction, Ctdsp1 / ISRIB and DYT Parallel Direction, Pcdh19 / ISRIB and DYT Parallel Direction, Tspan7 / ISRIB and DYT Parallel Direction, Myo1e / ISRIB and DYT Parallel Direction, Plpp3 / ISRIB and DYT Parallel Direction, Sh3bp4 / ISRIB and DYT Parallel Direction, Dnajc7 / ISRIB and DYT Parallel Direction, Drg1 / ISRIB and DYT Parallel Direction, Maea: YES = protein abundance effect similar to DYT/WT; settings: EV protein abundance; for WT + ISRIB/WT Cohen's d: ISRIB-treated WT vs WT; for ISRIB and DYT Parallel Direction: WT + ISRIB vs WT, direction compared with DYT/WT

B1: Sec23a (protein, UniProt Q01405 2-765, looked up)
Protein transport protein …: TTYLEFIQQNEERDGVRFSWNVWPSSRLEATRMVVPVAALFTPLKERPDLPPIQYEPVLCSRTTCRAVLNPLCQVDYRAKLWACNFCYQRNQFPPTYAGISELNQPAELLPQFSSIEYVVLRGPQMPLIFLYVVDTCIEDEDLQALKESMQMSLSLLPPTALVGLITFGRMVQVHELGCEGISKSYVFRGTKDLSAKQLQEMLGLSKVPVTQATRGPQVQQPPPSNRFLQPVQKIDMNLTDLLGELQRDPWPVPQGKRPLRSSGVALSIAVGLLECTFPNTGARIMMFIGGPATQGPGMVVGDELKTPIRSWHDIEKDNAKYVKKGTKHFEALANRAATTGHVIDIYACALDQTGLLEMKCCPNLTGGYMVMGDSFNTSLFKQTFQRVFTKDIHGQFKMGFGGTLEIKTSREIKISGAIGPCVSLNSKGPCVSENEIGTGGTCQWKICGLSPTTTLAIYFEVVNQHNAPIPQGGRGAVQFVTQYQHSSGQRRIRVTTIARNWADAQTQIQNIAASFDQEAAAILMARLAIYRAETEEGPDVLRWLDRQLIRLCQKFGEYHKDDPNSFRFSETFSLYPQFMFHLRRSPFLQVFNNSPDESSYYRHHFMRQDLTQSLIMIQPILYAYSFSGPPEPVLLDSSSILADRILLMDTFFQILIYHGETIAQWRKSGYQDMPEYENFRHLLQAPVDDAQEILHSRFPMPRYIDTEHGGSQARFLLSKVNPSQTHNNMYAWGQESGAPILTDDVSLQVFMDHLKKLAVSSAA
In the case of B1, the “RTV Corrective Direction” value (DYT-TOR1A MEF EVs) is reported as “YES”, the “DYT + RTV/DYT Cohen's d” value (DYT-TOR1A MEF EVs) is reported as 8.14 and the “WT + ISRIB/WT Cohen's d” value (WT MEF EVs) is reported as −0.95. The “ISRIB and DYT Parallel Direction” value (WT MEF EVs) was “YES”.

B2: Dars (protein, UniProt Q922B2 1-501, looked up)
Aspartate--tRNA ligase, …: MPSTNASRKGQEKPREIVDAAEDYAKERYGISSMIQSQEKPDRVLVRVKDLTVQKADDVVWVRARVHTSRAKGKQCFLVLRQQQFNVQALVAVGDHASKQMVKFAANINKESIIDVEGVVRKVNQKIGSCTQQDVELHVQKIYVISLAEPRLPLQLDDAIRPEVEGEEDGRATVNQDTRLDNRVIDLRTSTSQAIFRLQSGICHLFRETLINKGFVEIQTPKIISAASEGGANVFTVSYFKNNAYLAQSPQLYKQMCICADFEKVFCIGPVFRAEDSNTHRHLTEFVGLDIEMAFNYHYHEVVEEIADTLVQIFKGLQERFQTEIQTVSKQFPCEPFKFLEPTLRLEYCEALAMLREAGVEMDDEEDLSTPNEKLLGRLVKEKYDTDFYVLDKYPLAVRPFYTMPDPRNPKQSNSYDMFMRGEEILSGAQRIHDPQLLTERALHHGIDLEKIKAYIDSFRFGAPPHAGGGIGLERVTMLFLGLHNVRQTSMFPRDPKRLTP
For B2, the “RTV Corrective Direction” value (DYT-TOR1A MEF EVs) was “YES”, the “DYT + RTV/DYT Cohen's d” value (DYT-TOR1A MEF EVs) was 9.32 and the “WT + ISRIB/WT Cohen's d” value (WT MEF EVs) was −1.13. The “ISRIB and DYT Parallel Direction” value (WT MEF EVs) was “YES”.

B3: Fth1 (protein, UniProt P09528 1-182, looked up)
Ferritin heavy chain: MTTASPSQVRQNYHQDAEAAINRQINLELYASYVYLSMSCYFDRDDVALKNFAKYFLHQSHEEREHAEKLMKLQNQRGGRIFLQDIKKPDRDDWESGLNAMECALHLEKSVNQSLLELHKLATDKNDPHLCDFIETYYLSEQVKSIKELGDHVTNLRKMGAPEAGMAEYLFDKHTLGHGDES
With B3 the “RTV Corrective Direction” value (DYT-TOR1A MEF EVs) was “YES”, the “DYT + RTV/DYT Cohen's d” value (DYT-TOR1A MEF EVs) was 0.31 and the “WT + ISRIB/WT Cohen's d” value (WT MEF EVs) was −3.46. For the same molecule, the “ISRIB and DYT Parallel Direction” value (WT MEF EVs) was “YES”.

B4: Ssbp1 (protein, UniProt Q9CYR0 17-152, looked up)
Single-stranded DNA-binding …: ESEVASSLVLERSLNRVQLLGRVGQDPVMRQVEGKNPVTIFSLATNEMWRSGDSEVYQMGDVSQKTTWHRISVFRPGLRDVAYQYVKKGARIFVEGKVDYGEYMDKNNVRRQATTIIAGKKLVVHSVSGCSLEGLA
With B4 the “RTV Corrective Direction” value (DYT-TOR1A MEF EVs) was “YES”, the “DYT + RTV/DYT Cohen's d” value (DYT-TOR1A MEF EVs) was 3.30 and the “WT + ISRIB/WT Cohen's d” value (WT MEF EVs) was −1.49. For the same molecule, the “ISRIB and DYT Parallel Direction” value (WT MEF EVs) was “YES”.

B5: Plaa (protein, UniProt P27612 1-794, looked up)
Phospholipase A-2-activating …: MASGASRYRLSCSLPGHELDVRGLVCCLYPPGAFVSVSRDRTTRLWAPDSPNRGFTEMHCMSGHSNFVSCVCIIPSSDIYPHGLIATGGNDHNICIFSLDSPMPLYILKGHKDTVCSLSSGKFGTLLSGSWDTTAKVWLNDKCMMTLQGHTAAVWAVKILPEQGLMLTGSADKTIKLWKAGRCERTFLGHEDCVRGLAILSETEFLSCANDASIRRWQITGECLEVYFGHTNYIYSISVFPNSKDFVTTAEDRSLRIWKHGECAQTIRLPAQSIWCCCVLENGDIVVGASDGIIRVFTESEERTASAEEIKAFERELSQATIDSKTGDLGDINAEQLPGREHLSEPGTREGQTRLIRDGERVEAYQWSVSDGRWIKIGDVVGSSGANQQTSGKVLYEGKEFDYVFSIDVNEGGPSYKLPYNVSDDPWLVAYNFLQKNDLNPMFLDQVAKFIIDNTKGQTLGLGNTSFSDPFTGGGRYVPGTSGPSNTVQTADPFTGAGRYMPGSAGMDTTMTGVDPFTGNSAYRSAASKTVNIYFPKKEALTFDQANPTQILGKLKELNGTAPEEKKLTEDDLVLLEKILSLICNNSSEKPTAQQLQILWKAINWPEDIVFPALDILRLSIKHPNVNENFCNEKGDQFSSHLINLLNPKGKPANQLLALRTFCNCFVSQAGQKLMMSQRESLMSHAIELKSGSNKNIHIALATLTLNYSVCFHKDHNIEGKAQCLSVISTILEVVQDLEATFRLLVALGTLISDDSNAIQLAKSLGVDSQIKKYVSVSEPAKVSECCRLVLHLL
In the case of B5, the “RTV Corrective Direction” value (DYT-TOR1A MEF EVs) is reported as “YES”, the “DYT + RTV/DYT Cohen's d” value (DYT-TOR1A MEF EVs) is reported as 8.69 and the “WT + ISRIB/WT Cohen's d” value (WT MEF EVs) is reported as −2.39. The “ISRIB and DYT Parallel Direction” value (WT MEF EVs) was “YES”.

B6: Hnrnpf (protein, UniProt Q9Z2X1 1-415, looked up)
Heterogeneous nuclear …: MMLGPEGGEGYVVKLRGLPWSCSIEDVQNFLSDCTIHDGVAGVHFIYTREGRQSGEAFVELESEDDVKLALKKDRESMGHRYIEVFKSHRTEMDWVLKHSGPNSADSANDGFVRLRGLPFGCTKEEIVQFFSGLEIVPNGITLPVDPEGKITGEAFVQFASQELAEKALGKHKERIGHRYIEVFKSSQEEVRSYSDPPLKFMSVQRPGPYDRPGTARRYIGIVKQAGLDRMRSGAYSAGYGGYEEYSGLSDGYGFTTDLFGRDLSYCLSGMYDHRYGDSEFTVQSTTGHCVHMRGLPYKATENDIYNFFSPLNPVRVHIEIGPDGRVTGEADVEFATHEEAVAAMSKDRANMQHRYIELFLNSTTGASNGAYSSQVMQGMGVSAAQATYSGLESQSVSGCYGAGYSGQNSMGGYD
In the case of B6, the “RTV Corrective Direction” value (DYT-TOR1A MEF EVs) is reported as “YES”, the “DYT + RTV/DYT Cohen's d” value (DYT-TOR1A MEF EVs) is reported as 8.04 and the “WT + ISRIB/WT Cohen's d” value (WT MEF EVs) is reported as −0.18. The “ISRIB and DYT Parallel Direction” value (WT MEF EVs) was “YES”.

B7: Qars (protein, UniProt Q8BML9 2-775, looked up)
Glutamine--tRNA ligase: ATPDSLALFTGLGLSENKARETLKNEALSTQLREAATQAHQILGSTIDKATGVLLYDLVSRLRDTRRRSFLVSYIANKKIHTGLQLSAALEYVRSHPQDPIDTKDFEQECGVGVVVTPEQIEEAVESTINKHQLQLLAERYRFNMGLLMGEARAALRWADGKMIKNEVDMQVLHLLGPKMEADLVKKPKVAKARLEETDRKTAKDVVEKGEVAGQTLSLMEQLRGEALKFHKPGENYKTPGYVITPYTMDLLKQHLEITGGQVRTRFPPEPNGILHIGHAKAINFNFGYAKANNGICFLRFDDTNPEKEEAKFFTAIYDMVTWLGYTPYKVTYASDYFDQLYAWAVELIHGGLAYVCHQRVEELKGHNPLPSPWRDRPKEESLLLFEAMRKGKFAEGEATLRMKLVMEDGKMDPVAYRVKYTPHHRTGDKWCIYPTYDYTHCLCDSIEHITHSLCTKEFQARRSSYFWLCNALKVYCPVQWEYGRLNLHYAVVSKRKILQLVAAGAVRDWDDPRLFTLTALRRRGFPPEAINNFCARVGVTVAQTTMEPHLLEACVRDVLNDAAPRAMAVLEPLQVVITNFPAPKPLDIRVPNFPADETKGFHQVPFASTVFIERSDFKEESEPGYKRLASGQPVGLRHTGYVIELQNIVRGSSGCVERLEVTCRRADAGEKPKAFIHWVSQPLVCEIRLYECLFQHKNPEDPVEVPGGFLSDLNPASLQVVEGALVDCSVALAKPFDKFQFERLGYFSVDPDSHQGQIVFNRTVTLKEDPGKI
B7 was tested, and the “RTV Corrective Direction” value (DYT-TOR1A MEF EVs) was “YES”, the “DYT + RTV/DYT Cohen's d” value (DYT-TOR1A MEF EVs) was 7.21 and the “WT + ISRIB/WT Cohen's d” value (WT MEF EVs) was −2.14. For the same molecule, the “ISRIB and DYT Parallel Direction” value (WT MEF EVs) was “YES”.
